Here are results for three substances from publication PMC11221535.

Holding throughout (test): ITC
(In general: In ITC the heat of successive injections is recorded.)

Assay [1] concerns the target TobC C-terminal docking domain (TobC ^CDD) (Methylorubrum extorquens AM1).
Assay [2] concerns the target TobE N-terminal docking domain (TobE ^NDD) (Methylorubrum extorquens AM1).
For assay [3], the target named is TobE ^NDD-ACP didomain (Methylorubrum extorquens AM1).

Take “TobE N-terminal docking domain (TobE ^NDD) (domain or fragment)”: in assay [1], the Kd (in general, a measure of binding affinity in units of concentration) worked out at 3.2 µM and the stoichiometry N (in general, a count of units in the complex or per binding partner) came out at 1.
For TobC ^CDD R2271A (domain or fragment), in assay [2], the Kd came to 769 µM.
In assay [2], “TobC C-terminal docking domain (TobC ^CDD) (domain or fragment)” yielded a Kd of 4 µM and a stoichiometry N of 0.8. For the same substance, the Kd in assay [3] is 5.7 µM.
